What was measured:
human C1q protein = target: T1, human C1q protein (human, UniProt P02745 23-245; P02746 28-253; P02747 29-245); assay: ELISA on strips coated with human C1q, HRP-anti-human Ab detection
T1 construct: also called human C1q complement

protein G agarose = protein G agarose (UniProt P06654 228-352); assay: protein G agarose precipitation, SDS-PAGE with Coomassie staining
Sequence of protein G agarose (P06654 228-352): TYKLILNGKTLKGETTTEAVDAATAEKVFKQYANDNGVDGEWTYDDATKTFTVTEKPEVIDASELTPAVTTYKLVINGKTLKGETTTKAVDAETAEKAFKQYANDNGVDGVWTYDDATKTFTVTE

T1 sequence (P02745 23-245 limits assumed, chain 1 of 3): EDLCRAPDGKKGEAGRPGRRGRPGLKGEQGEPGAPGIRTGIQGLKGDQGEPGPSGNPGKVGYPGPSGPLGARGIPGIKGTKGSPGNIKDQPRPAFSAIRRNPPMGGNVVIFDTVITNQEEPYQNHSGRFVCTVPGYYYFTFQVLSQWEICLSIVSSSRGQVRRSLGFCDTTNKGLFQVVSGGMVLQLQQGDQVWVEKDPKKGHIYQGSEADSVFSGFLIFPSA
T1 sequence (P02746 28-253 limits assumed, chain 2 of 3): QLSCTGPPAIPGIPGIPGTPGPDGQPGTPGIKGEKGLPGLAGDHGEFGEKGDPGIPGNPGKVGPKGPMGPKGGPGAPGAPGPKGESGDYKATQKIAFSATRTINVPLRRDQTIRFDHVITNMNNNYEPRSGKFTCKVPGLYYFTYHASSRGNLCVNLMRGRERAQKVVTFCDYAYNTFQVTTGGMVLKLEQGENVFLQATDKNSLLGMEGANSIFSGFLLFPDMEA
T1 sequence (P02747 29-245 limits assumed, chain 3 of 3): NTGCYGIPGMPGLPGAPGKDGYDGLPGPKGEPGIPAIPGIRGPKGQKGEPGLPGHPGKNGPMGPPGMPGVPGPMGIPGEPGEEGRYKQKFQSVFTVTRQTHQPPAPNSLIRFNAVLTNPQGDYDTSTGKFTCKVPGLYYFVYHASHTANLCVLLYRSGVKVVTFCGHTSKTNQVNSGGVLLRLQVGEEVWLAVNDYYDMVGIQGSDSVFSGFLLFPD

Binder	binding result (human C1q protein)	binding result (protein G agarose)
mA116huFc Ab (Fc fusion, also called recombinant mA116huFc Ab; 70 kDa protein) MRGSHHHHHHGMASMTGGQQMGRDLYDDDDKDRWGSELEICSWYHGIPLVVPFYAAQPAMAQVQLQESGPELVKPGASVKISCKASGYTFTDYHVHWVKGKPGQGLEWIGMTYPGFDNTNYSETFKGKATLTVDTSSNTVYMQLSSLTSEDTAVYFCARGVGLDYWGQGTTVTVSSGGGGSGGGGSGGGGSDIELTQSPNSLSTSIGDRIRITCKASQDVDTAVGWYQQRPGQSPKLLIFWSSTRHTGVPDRFTGSGSGTDFTLTISNVQSEDLADYFCHQYSSYPFTFGSGTKLEIKRAAAGCLVKDYFPEPVTVSWNSGALTSGVHTFPAVLQSSGLYSLSSVVTVPSSSLGTQTYICNVNHKPSNTKVDKRVEPKSCDKTHTCPPCPAPELLGGPSVFLFPPKPKDTLMISRTPEVTCVVVDVSHEDPEVKFNWYVDGVEVHNAKTKPREEQYNSTYRVVSVLTVLHQDWLNGKEYKCKVSNKALPAPIEKTISKAKGQPREPQVYTLPPSRDELTKNQVSLTCLVKGFYPSDIAVEWESNGQPENNYKTTPPVLDSDGSFFLYSKLTVDKSRWQQGNVFSCSVMHEALHNHYTQKSLIRLLTKPERKLSWLLPPLSNN	binds	–
mA116 scFv Ab (scFv, also called repaired A116 scFv Ab) scFv: QVQLQESGPELVKPGASVKISCKASGYTFTDYHVHWVKGKPGQGLEWIGMTYPGFDNTNYSETFKGKATLTVDTSSNTVYMQLSSLTSEDTAVYFCARGVGLDYWGQGTTVTVSSGGGGSGGGGSGGGGSDIELTQSPNSLSTSIGDRIRITCKASQDVDTAVGWYQQRPGQSPKLLIFWSSTRHTGVPDRFTGSGSGTDFTLTISNVQSEDLADYFCHQYSSYPFTFGSGTKLEIK	–	no binding

From patent US20040005333A1 (HER MAJESTY THE QUEEN IN RIGHT OF CANADA AS REPRESENTED BY …, published 2004)
